In assay [1] the target is allophycocyanin (AP) core cylinders of the Synechocystis phycobilisome.
The target of assay [2] is CpcA, α-subunit of phycocyanin (Synechocystis sp. PCC 6803). In words: densitometry of Zn-chromophore fluorescence bands of affinity-eluted proteins.
Assay [3] deals with allophycocyanin (AP) core cylinders of the Synechocystis phycobilisome. This is another data set of the same source.
For assay [4] the target is unchanged. The source holds these as a separate data set.

For “(α,β*TTFC)3CpcG1*IFN heterohexameric complex”, in assay [1], the Chl a fluorescence yield normalized to Chl, relative to Δcpc (relative to Δcpc (=1.0)) is 1.45 and the kII of PSII photochemistry minus the kII of Δcpc, 620 nm actinic light, 12 µM DCMU is 13.4 % of WT.

On to CpcB*S7*6xHis*tev*TTFC fusion protein, for which, in assay [2], the CpcB/CpcA Zn-chromophore fluorescence ratio in the eluted fraction was found to be 1.4.

For the substance (α,β*TTFC)3CpcG heterohexameric complex, the rate constant kII of PSII photochemistry, 620 nm actinic light, DCMU-treated intact cells in assay [3] is 1.39 fold of Δcpc. Besides, the Chl a fluorescence yield at 700 nm, normalized to [Chl], relative to Δcpc (relative to Δcpc (=1.00)) in assay [4] stood at 1.66.

Regarding (α,β)3CpcG1*IFN complex, in assay [1], the Chl a fluorescence yield normalized to Chl, relative to Δcpc (relative to Δcpc (=1.0)) came to 1.55 and the kII of PSII photochemistry minus the kII of Δcpc, 620 nm actinic light, 12 µM DCMU was 22.4 % of WT.

With (α,β*)3CpcG heterohexameric complex, the rate constant kII of PSII photochemistry, 620 nm actinic light, DCMU-treated intact cells in assay [3] was 1.57 fold of Δcpc. The substance further had a Chl a fluorescence yield at 700 nm, normalized to [Chl], relative to Δcpc (relative to Δcpc (=1.00)) in assay [4] of 1.74.

For the substance (α,β*IFN)3CpcG heterohexameric complex, the rate constant kII of PSII photochemistry, 620 nm actinic light, DCMU-treated intact cells in assay [3] was 1.46 fold of Δcpc. Moreover, in assay [4], the Chl a fluorescence yield at 700 nm, normalized to [Chl], relative to Δcpc (relative to Δcpc (=1.00)) worked out at 1.84.
